Key:
[1] = mouse, in vivo
Method: Radiochemical synthesis and characterization. Complexation was achieved by reacting DOTATATE (5-10 μg in 5-10 μL water from 1.0 mg/mL solution) with ^225Ac(NO3)3 (3.4 MBq) that was diluted in 100 μL of water containing 10 μL of 20% L-ascorbic acid. The pH was adjusted to 5.5-6 using 1 M Tris buffer (10-12 μL), and then incubated at 60° C. for 1 h (FIG. 1). […] Animal studies. An equal number of male and female subjects were assigned to each experimental cohort. All the animals were purchased from Charles River (Wilmington, MA). Injected Activity Measurement. […] Activities in syringes were measured using the Atomlab 500 Dose Calibrator (Biodex). Per the manufacturer's recommendations, measurements were made for 2 mins using dial number 38.2 and the assumption that ^225Ac and daughters were in secular equilibrium. […] The α activity in μCi of each radionuclide was determined by fitting each peak with a multi-Gaussian fit and integrating to determine the net number of counts while incorporating the acquisition time. The net administered activities were determined by subtraction of the residual activity in the catheter and syringe from the dose calibrator measured pre-injection activity. […] Then, mice were weighed twice per week and monitored for 5 months for signs of distressed behavior, followed by euthanasia and tissue collection. […]

[2] = Radiation dosimetry and clearance kinetics from BD data; type: in vivo; conditions: for Decay half-life, Teff: ^225Ac
Method: (§1) Radiochemical synthesis and characterization. Complexation was achieved by reacting DOTATATE (5-10 μg in 5-10 μL water from 1.0 mg/mL solution) with ^225Ac(NO3)3 (3.4 MBq) that was diluted in 100 μL of water containing 10 μL of 20% L-ascorbic acid. The pH was adjusted to 5.5-6 using 1 M Tris buffer (10-12 μL), and then incubated at 60° C. for 1 h (FIG. 1). […] Animal studies. An equal number of male and female subjects were assigned to each experimental cohort. All the animals were purchased from Charles River (Wilmington, MA). Injected Activity Measurement. […] Activities in syringes were measured using the Atomlab 500 Dose Calibrator (Biodex). Per the manufacturer's recommendations, measurements were made for 2 mins using dial number 38.2 and the assumption that ^225Ac and daughters were in secular equilibrium. Activity was injected into each mouse via tail-vein catheter (50 μL dead volume). […] The α activity in μCi of each radionuclide was determined by fitting each peak with a multi-Gaussian fit and integrating to determine the net number of counts while incorporating the acquisition time. The net administered activities were determined by subtraction of the residual activity in the catheter and syringe from the dose calibrator measured pre-injection activity. Spectra for activity calculations were acquired ≥24 h post-radiosynthesis ensuring that ^225Ac and daughters were in secular equilibrium (see Robertson, A. K. H.; et al. Phys Med Biol 2017, 62 (11), 4406-4420). Maximum tolerated activity/toxicity. […] Then, mice were weighed twice per week and monitored for 5 months for signs of distressed behavior, followed by euthanasia and tissue collection. Blood urea nitrogen (BUN), creatinine, alkaline phosphatase (ALKP), alanine aminotransferase (ALT) and aspartate aminotransferase (AST) content in serum were analyzed using commercial IDEXX CLIP (IDEXX, Main, USA) and read by an automated biochemical analyzer (IDEXX Catalyst DX, Main, USA) following the manufacturer's protocol. Bone, bone marrow, brain, cecum, duodenum, kidney, liver, lymph nodes, muscle, pancreas, salivary gland, small intestine, and spleen were harvested and fixed in 10% formalin. Bone was decalcified in 14% ethylene diaminetetraacetic acid (EDTA) solution after fixation in formalin. All tissues were embedded in paraffin, sectioned (4-6 μm thickness), stained with hematoxylin and eosin (H&E), and examined by the veterinary pathologist (R.E.), in a blind manner. Biodistribution (BD). […] Groups of animals were euthanized at 24, 48 and 96 h p.i., n=4 mice per time point, and tissues were removed and weighed. […] Radiation dosimetry. Dosimetry calculations were performed as previously described. […] The β decay branching ratio for ^217At to ^217Rn is only 0.01% therefore it was assumed that all decays of ^217At were by […] to ^213Bi. The branching ratios for decay of ^213Bi by 98% to ^213Po and by 2% to ^209T1 were accounted for in the calculation. Due to the relatively low LET and the small dimensions of the target tissues, the β emissions from ^217At, ^213Bi, ^209T1 and ^209Pb were assumed negligible and not included in the calculations (see Bolch, W. E.; J Nucl Med 2009, 50 (3), 477-84).
Dosimetry calculations were performed using the generalized internal dosimetry schema of the MIRD Committee for α-particle emitters. According to MIRD #21, the absorbed radiation dose due to particle type x, Dx(rT, TD) is the mean energy imparted to target tissue rT per unit tissue mass, defined by Equation 1: […]
where A(rS, TD) is the total number of nuclear transitions in the […] (accumulated activity), Δi^x is the mean energy emitted per nuclear transition, φ(rT←rS; Ei^x) is the fraction of energy emitted per nuclear transition in the source region that is absorbed in the target region by the i^th emission that is emitted with initial energy E, k is a conversion factor, and M(rT) is the mass of the target tissue.

[3] = Maximum tolerated activity/toxicity in non-tumor bearing mice; type: in vivo
Method: as §1, with “(BD). BD studies for ^225Ac-DOTATATE were performed using groups of normal non-tumor bearing BALB/c mice.” for “(BD).”
Anti-tumor efficacy. Efficacy studies were performed using NCI-H69 human SCLC and NCI-H727 lung carcinoid xenograft tumors in SCID mice. […] Animals were euthanized when the experimental endpoint of 2000 mm^3 tumor volume was reached. Any euthanasia performed prior to reaching 2000 mm^3 tumor volume were due to clinical endpoints, such as 20% weight loss, tumor ulceration, hunched back, scruffy fur (no longer grooming), lethargic or slow moving. Histology and immunohistochemistry (IHC). […]

C[C@@H](O)[C@H](NC(=O)[C@@H]1CSSC[C@H](NC(=O)[C@@H](Cc2ccccc2)NC(=O)CN2CCN(CC(=O)O)CCN(CC(=O)O)CCN(CC(=O)O)CC2)C(=O)N[C@@H](Cc2ccc(O)cc2)C(=O)N[C@H](Cc2c[nH]c3ccccc23)C(=O)N[C@@H](CCCCN)C(=O)N[C@@H]([C@@H](C)O)C(=O)N1)C(=O)O [^225Ac-DOTATATE, metal not drawn]
clearance of activity from the tissues [1]: largely cleared
clearance route [1]: primarily cleared by the renal route, with some hepatic clearance
Decay half-life, Teff ([2]; Brain): 67.296 h
Decay half-life, Teff ([2]; Heart): 1732.87 h
Decay half-life, Teff ([2]; Lung): 53.318 h
Decay half-life, Teff ([2]; Muscle): 141.46 h
Decay half-life, Teff ([2]; Pancreas): 115.52 h
Decay half-life, Teff ([2]; Salivary): 90.019 h
Decay half-life, Teff ([2]; Skin): 75.343 h
Decay half-life, Teff ([2]; Spleen): 111.8 h
calculated total absorbed dose ([2]; mouse, in vivo): minimal
survival ([3]; all dose levels): all animals survived to 5-months p.i.
treatment related pathologic changes in other studied organs (not kidney) ([3]; bone, bone marrow, brain, cecum, duodenum, liver, lymph nodes, muscle, pancreas, salivary gland, small intestine, spleen): None and no treatment related damage
ALKP among the cohorts (ANOVA and Dunnett's test) ([3]; mouse, in vivo): no significant differences
ALT among the cohorts (ANOVA and Dunnett's test) ([3]; mouse, in vivo): no significant differences
AST among the cohorts (ANOVA and Dunnett's test) ([3]; mouse, in vivo): no significant differences
Liver enzymes ([3]; mouse, in vivo): normal
acute kidney damage by pathology ([3]; mouse, in vivo): no acute kidney damage

— patent US20230382819A1, “PROCESSES FOR SYNTHESIS OF ALPHA-EMITTING RADIOPHARMACEUTICALS” (priority 2020, published 2023)
